Reference: PMC6733935, “A convenient and efficient total solid-phase synthesis of DOTA-functionalized tumor-targeting peptides for PET imaging of cancer” (EJNMMI Research, 2019)
Square brackets hold non-standard residues; d marks the D form. Peptide text beside a SMILES is read from it. * marks the point of attachment. DOTA = O=C(O)CN1CCN(CC(=O)O)CCN(CC(=O)*)CCN(CC(=O)O)CC1; Cha = N[C@@H](CC1CCCCC1)C(=O)O; 4Abz = Nc1ccc(C(=O)O)cc1; Nle = CCCC[C@H](N)C(=O)O; Ahx = NCCCCCC(=O)O

What was measured:
[1] = target: T1, BN/GRP receptor-positive MDA-MB-231 human breast cancer cells (Homo sapiens, UniProt P30550); experiment: Saturation binding assay on MDA-MB-231 cells; settings: n = 3-5 experiments; for Bmax (apparent number of binding sites per cell): SD < 15%
T1 construct: BN/GRP receptor-positive MDA-MB-231, MCF7, T47D human breast cancer, and PC3 human prostate cancer lines; host or cells: MDA-MB-231, MCF7, T47D (human breast cancer), PC3 (human prostate cancer); intact cells
Protocol: The cell binding of ^68Ga-radiolabeled peptides into BN/GRP receptor-positive MDA-MB-231, MCF7, T47D human breast cancer, and PC3 human prostate cancer lines (American Type Culture Collection, Rockville, MD, USA) was performed according to the method described previously. In brief, ∼ 300,000 cells (in 300 μL in low-serum media) were incubated with various amounts of radiopeptides, ranging between 0.1 and 25 nM of peptide (prepared from the serial dilutions of HPLC-purified radiopeptides), in duplicate for 60 min at room temperature. The initial concentrations of ^68Ga-labeled peptides were determined according to a well-established HPLC technique with simultaneous detection by UV absorbance. As the amount of BN peptide in the reaction mixture was too small to be detected by UV absorption at 220 nm, the radioactive peptide chromatograms from the HPLC analysis were compared (with UV chromatograms) with those of known concentrations of the corresponding nonradioactive peptides for the mass determination. Incubation was terminated by dilution with cold saline (300 μL) and the cells were pelleted by centrifugation. The cell pellets was then rapidly washed with cold saline to remove any unbound peptide and centrifuged to collect supernatants. Radioactivity in the cell pellet and the washings was measured in a γ-counter. Non-specific binding was determined in the presence of ~ 200-fold molar excess of unlabeled BN peptide. Specific binding is calculated by subtracting the non-specifically bound radioactivity from that of the total binding. The dissociation constant (Kd) was calculated using a plot of cell bound activity versus the concentration of the radioligand using GraphPad Prism software (GraphPad Software Inc., San Diego, CA, USA).

[2] = in vivo; type: in vivo, nude mice; settings: female, nude, mouse, in vivo, total radioactivity; for dose excreted at 1 h / dose excreted at 2 h: Radioactivity in Urine + bladder
Protocol: BN/GRP receptor-positive MDA-MB-231 and PC3 cell lines (American Type Culture Collection, Rockville, USA) were grown as monolayers at 37 °C in a humidified atmosphere containing RPMI-1640 culture media with 10% fetal bovine serum (FBS) in tissue culture flasks. Twenty-four hours prior to conducting the tumor implantation, the media was replaced with RPMI-1640/10% FBS. The cells were grown to 80-90% confluency and harvested by trypsinization. After centrifugation, about 50 million cells were suspended in 1 mL media for implantation into mice. To prepare cells for inoculation, MDA-MB-231 or PC3 cancer cells with media were centrifuged, the media decanted, and the cell pellet was mixed with phosphate-buffered saline (PBS) to reach a concentration of approximately 5 million cells per 100 μL PBS. Human MDA-MB-231 breast cancer xenografts female mouse models were used for in vivo tumor-targeting experiments. For the implantation of tumor xenografts, approximately five million MDA-MB-231 cells in suspension of 100 μL sterile PBS were injected subcutaneously into the left thigh of each mouse. Tumors were allowed to grow for 4-6 weeks by which tumors had reached weights of 200-300 mg. After sufficient growth of tumors, animals were injected with 20-30 μCi of the radiotracers and the animals were sacrificed at specified time points. The uptake of ^68Ga-radiolabeled peptides in the tumors and other major body organs was calculated by γ-counting as described above.

[3] = in vivo; parameters: species or system Balb/c mice; settings: Balb/c, mouse, iv; for dose excreted at 1 h / dose excreted at 2 h / tissue uptake at 1 h / tissue uptake at 2 h: total radioactivity
Protocol: Approval for the animal protocol used in this study was obtained from the Institutional Animal Care and Use Committee. Animal studies were conducted according to the international regulations governing the safe and proper use of laboratory animals. In vivo biodistribution were performed on healthy Balb/c mice (n = 3–5 in each group, body weight 19–22 g) at 1 and 2 h after intravenous injection of the HPLC-purified radiopeptide (100 μL, 15–20 μCi, total peptide dose ~ 20 ng) via the lateral tail vein. The mice were sacrificed by cervical dislocation at specified time points and blood samples were withdrawn with a syringe from the heart. Major organs such as lungs, stomach, spleen, pancreas, intestines, liver, kidneys, etc. were isolated, weighed, and radioactivity in each organs and tissues were measured using a γ-scintillation counter. Uptake of radioactivity in the tissues and organs was expressed as the percent injected dose per gram (% ID/g) of tissue/organ, which was calculated by comparison with standard solutions representing 10% of the injected dose per animal. For the clearance studies, radioactivity in the urine with bladder and feces is expressed as the percent of the injected dose per tissue (% ID). Values are expressed as mean ± SD for a group of 3-5 animals at each time point.

[4] = Uptake in Intestines (measured without their contents)

With CCCC[C@H](NC(=O)[C@H](Cc1c[nH]cn1)NC(=O)[C@H](CC1CCCCC1)NC(=O)[C@@H](NC(=O)[C@H](C)NC(=O)[C@H](Cc1c[nH]c2ccccc12)NC(=O)[C@H](CCC(N)=O)NC(=O)[C@H](CS)NC(=O)CNC(=O)CNC(=O)c1ccc(NC(=O)CN2CCN(CC(=O)O)CCN(CC(=O)O)CCN(CC(=O)O)CC2)cc1)C(C)C)C(=O)N[C@@H](CCSC)C(N)=O [^68Ga-DOTA-Abz-BN Cyclen, metal not drawn] ({DOTA-4Abz}-GGCQWAV[Cha]H[Nle]M-NH2) the “Bmax (apparent number of binding sites per cell)” value [1] was 6.09 × 10^5 sites/cell, the dose excreted at 1 h [2] was 61 ± 9.93% and the dose excreted at 2 h [2] was 78 ± 5.89%. The tissue uptake at 1 h ([2]; Uptake in Blood) was 1 ± 0.16 %ID/g, the tissue uptake at 2 h ([2]; Uptake in Blood) was 0.55 ± 0.1 %ID/g and the tissue uptake at 1 h [2, 4] was 0.95 ± 0.27 %ID/g. For the same compound, the tissue uptake at 2 h [2, 4] was 0.54 ± 0.16 %ID/g, the tissue uptake at 1 h ([2]; Uptake in Kidneys) was 6.03 ± 1 %ID/g and the tissue uptake at 2 h ([2]; Uptake in Kidneys) was 5 ± 0.77 %ID/g. The tissue uptake at 1 h ([2]; Uptake in Liver) was 2.54 ± 0.46 %ID/g, the tissue uptake at 2 h ([2]; Uptake in Liver) was 2 ± 0.37 %ID/g and the tissue uptake at 1 h ([2]; Uptake in Lungs) was 2.8 ± 0.55 %ID/g. It also gave a tissue uptake at 2 h ([2]; Uptake in Lungs) of 1.15 ± 0.23 %ID/g, a tissue uptake at 1 h ([2]; Uptake in Muscle) of 0.32 ± 0.06 %ID/g and a tissue uptake at 2 h ([2]; Uptake in Muscle) of 0.26 ± 0.05 %ID/g. The tissue uptake at 1 h ([2]; Uptake in Pancreas) was 2.94 ± 0.43 %ID/g, the tissue uptake at 2 h ([2]; Uptake in Pancreas) was 1.18 ± 0.31 %ID/g and the tissue uptake at 1 h ([2]; Uptake in Spleen) was 0.22 ± 0.07 %ID/g. It also gave a tissue uptake at 2 h ([2]; Uptake in Spleen) of 0.12 ± 0.02 %ID/g, a tissue uptake at 1 h ([2]; Uptake in Stomach) of 1.34 ± 0.29 %ID/g and a tissue uptake at 2 h ([2]; Uptake in Stomach) of 0.49 ± 0.12 %ID/g. For the same compound, the “%ID excreted in Urine” value ([3]; 1 h) was 70.0 ± 8.60 %ID, the “Uptake in Liver” value ([3]; 1 h) was 0.68 ± 0.16 %ID/g and the “Uptake in Lungs” value ([3]; 1 h) was 0.21 ± 0.05 %ID/g. For the same compound, the dose excreted at 1 h ([3]; %ID excreted in Feces) was 1.01 ± 0.2%, the dose excreted at 2 h ([3]; %ID excreted in Feces) was 0.88 ± 0.12% and the dose excreted at 2 h ([3]; %ID excreted in Urine) was 62 ± 9.54%. For the same compound, the tissue uptake at 1 h ([3]; Uptake in Blood) was 0.4 ± 0.11 %ID/g, the tissue uptake at 1 h ([3]; Uptake in Bone) was 0.13 ± 0.04 %ID/g and the tissue uptake at 2 h ([3]; Uptake in Bone) was 0.09 ± 0.01 %ID/g. The tissue uptake at 1 h [3, 4] was 0.85 ± 0.17 %ID/g, the tissue uptake at 2 h [3, 4] was 0.53 ± 0.14 %ID/g and the tissue uptake at 1 h ([3]; Uptake in Kidneys) was 2.96 ± 0.3 %ID/g. For the same compound, the tissue uptake at 2 h ([3]; Uptake in Kidneys) was 1.88 ± 0.25 %ID/g, the tissue uptake at 2 h ([3]; Uptake in Liver) was 0.5 ± 0.07 %ID/g and the tissue uptake at 1 h ([3]; Uptake in Pancreas) was 1.07 ± 0.13 %ID/g. It also gave a tissue uptake at 2 h ([3]; Uptake in Pancreas) of 0.88 ± 0.11 %ID/g, a tissue uptake at 1 h ([3]; Uptake in Spleen) of 0.12 ± 0.02 %ID/g and a tissue uptake at 2 h ([3]; Uptake in Spleen) of 0.07 ± 0.01 %ID/g. The tissue uptake at 1 h ([3]; Uptake in Stomach) was 1.69 ± 0.24 %ID/g and the tissue uptake at 2 h ([3]; Uptake in Stomach) was 0.45 ± 0.1 %ID/g.
With CCCC[C@H](NC(=O)[C@H](Cc1c[nH]cn1)NC(=O)[C@H](CC1CCCCC1)NC(=O)[C@@H](NC(=O)[C@H](C)NC(=O)[C@H](Cc1c[nH]c2ccccc12)NC(=O)[C@H](CCC(N)=O)NC(=O)[C@H](CS)NC(=O)CNC(=O)CNC(=O)CCCCCNC(=O)CN1CCN(CC(=O)O)CCN(CC(=O)O)CCN(CC(=O)O)CC1)C(C)C)C(=O)N[C@@H](CCSC)C(N)=O [^68Ga-DOTA-Ahx-BN Cyclen, metal not drawn] ({DOTA-Ahx}-GGCQWAV[Cha]H[Nle]M-NH2) the “Bmax (apparent number of binding sites per cell)” value [1] was 5.13 × 10^5 sites/cell, the Kd ([1]; ~300,000 cells, 0.1-25 nM radiopeptide, 60 min, room temperature, mean ± SD) was 12.7 ± 2.94 nM and the dose excreted at 1 h [2] was 64 ± 9.15%. It also gave a dose excreted at 2 h [2] of 70 ± 8.7%, a tissue uptake at 1 h ([2]; Uptake in Blood) of 0.92 ± 0.15 %ID/g and a tissue uptake at 2 h ([2]; Uptake in Blood) of 0.51 ± 0.07 %ID/g. It also gave a tissue uptake at 1 h [2, 4] of 0.86 ± 0.12 %ID/g, a tissue uptake at 2 h [2, 4] of 0.61 ± 0.06 %ID/g and a tissue uptake at 1 h ([2]; Uptake in Kidneys) of 4.93 ± 0.38 %ID/g. The tissue uptake at 2 h ([2]; Uptake in Kidneys) was 4.01 ± 0.41 %ID/g, the tissue uptake at 2 h ([2]; Uptake in Lungs) was 0.36 ± 0.03 %ID/g and the tissue uptake at 1 h ([2]; Uptake in Muscle) was 0.23 ± 0.03 %ID/g. It also gave a tissue uptake at 2 h ([2]; Uptake in Muscle) of 0.19 ± 0.02 %ID/g, a tissue uptake at 1 h ([2]; Uptake in Pancreas) of 1.65 ± 0.14 %ID/g and a tissue uptake at 2 h ([2]; Uptake in Pancreas) of 0.82 ± 0.1 %ID/g. The tissue uptake at 1 h ([2]; Uptake in Spleen) was 0.25 ± 0.02 %ID/g, the tissue uptake at 2 h ([2]; Uptake in Spleen) was 0.14 ± 0.01 %ID/g and the tissue uptake at 1 h ([2]; Uptake in Stomach) was 0.73 ± 0.13 %ID/g. The tissue uptake at 2 h ([2]; Uptake in Stomach) was 0.34 ± 0.05 %ID/g, the “Uptake in Lungs” value ([3]; 2 h) was 0.10 ± 0.02 %ID/g and the dose excreted at 1 h ([3]; %ID excreted in Feces) was 0.85 ± 0.17%. The dose excreted at 2 h ([3]; %ID excreted in Feces) was 0.76 ± 0.11%, the dose excreted at 1 h ([3]; %ID excreted in Urine) was 80 ± 9.8% and the dose excreted at 2 h ([3]; %ID excreted in Urine) was 64 ± 6.35%. For the same compound, the tissue uptake at 1 h ([3]; Uptake in Blood) was 0.18 ± 0.04 %ID/g, the tissue uptake at 2 h ([3]; Uptake in Blood) was 0.11 ± 0.03 %ID/g and the tissue uptake at 1 h ([3]; Uptake in Bone) was 0.15 ± 0.03 %ID/g. The tissue uptake at 2 h ([3]; Uptake in Bone) was 0.06 %ID/g, the tissue uptake at 1 h [3, 4] was 0.64 ± 0.12 %ID/g and the tissue uptake at 2 h [3, 4] was 0.41 ± 0.05 %ID/g. For the same compound, the tissue uptake at 1 h ([3]; Uptake in Kidneys) was 1.98 ± 0.34 %ID/g, the tissue uptake at 2 h ([3]; Uptake in Kidneys) was 1.41 ± 0.27 %ID/g and the tissue uptake at 1 h ([3]; Uptake in Liver) was 0.61 ± 0.1 %ID/g. The tissue uptake at 2 h ([3]; Uptake in Liver) was 0.46 ± 0.07 %ID/g, the tissue uptake at 1 h ([3]; Uptake in Lungs) was 0.19 ± 0.04 %ID/g and the tissue uptake at 1 h ([3]; Uptake in Pancreas) was 1.49 ± 0.12 %ID/g. It also gave a tissue uptake at 2 h ([3]; Uptake in Pancreas) of 1.02 ± 0.15 %ID/g, a tissue uptake at 1 h ([3]; Uptake in Spleen) of 0.13 ± 0.01 %ID/g and a tissue uptake at 2 h ([3]; Uptake in Spleen) of 0.09 ± 0.01 %ID/g. For the same compound, the tissue uptake at 1 h ([3]; Uptake in Stomach) was 1.48 ± 0.22 %ID/g and the tissue uptake at 2 h ([3]; Uptake in Stomach) was 0.43 ± 0.11 %ID/g.
